In doi:10.1101/2024.08.27.609886:

Biological target: FibrilPaint1
Assay: MST

Kd: 1500 nM
Substance: E3 ligase CHIP (from UniProt Q9UNE7 23-303) (enzyme)
